Experimental data reported in patent US20100098706A1 (LFB BIOTECHNOLOGIES, published 2010).

Legend:
[1] = biological target: T1, human CD16 receptor (FcgammaRIIIa) (human, UniProt P08637 17-254); experiment: cell-based or functional assay
[2] = biological target: T1, human CD16 receptor (FcgammaRIIIa); experiment: flow cytometry on NK cells; competition with 3G8-PE; antibody at 50 µg/ml; reference Rituxan®
Protocol: The binding to the CD16 receptor is evaluated by a murine anti-CD16 antibody (3G8) competition test.
The effector cells (NK cells) are purified by the negative depletion kit (NK Cell Isolation Kit, Myltenyi, Paris, France), starting with peripheral blood from healthy donors. Then, the NK cells are incubated with variable concentrations (0, 10 and 50 μg/ml) of antibodies to be evaluated and the anti-CD16 antibody (3G8) coupled to a fluorochrome (3G8-PE) at a fixed concentration.
After washing, the binding of the 3G8-PE to the CD16 receptor of the NK cells is evaluated by flow cytometry.

[3] = biological target: T2, human LDL (Low Density Lipoprotein) receptor (human, UniProt P01130 22-860); experiment: binding to melanoma cell lines; method not described
T2 construct: whole, on cells; no recombinant LDL-R was tested; also called LDL-R; human LDL-R
T2 sequence (P01130 22-860): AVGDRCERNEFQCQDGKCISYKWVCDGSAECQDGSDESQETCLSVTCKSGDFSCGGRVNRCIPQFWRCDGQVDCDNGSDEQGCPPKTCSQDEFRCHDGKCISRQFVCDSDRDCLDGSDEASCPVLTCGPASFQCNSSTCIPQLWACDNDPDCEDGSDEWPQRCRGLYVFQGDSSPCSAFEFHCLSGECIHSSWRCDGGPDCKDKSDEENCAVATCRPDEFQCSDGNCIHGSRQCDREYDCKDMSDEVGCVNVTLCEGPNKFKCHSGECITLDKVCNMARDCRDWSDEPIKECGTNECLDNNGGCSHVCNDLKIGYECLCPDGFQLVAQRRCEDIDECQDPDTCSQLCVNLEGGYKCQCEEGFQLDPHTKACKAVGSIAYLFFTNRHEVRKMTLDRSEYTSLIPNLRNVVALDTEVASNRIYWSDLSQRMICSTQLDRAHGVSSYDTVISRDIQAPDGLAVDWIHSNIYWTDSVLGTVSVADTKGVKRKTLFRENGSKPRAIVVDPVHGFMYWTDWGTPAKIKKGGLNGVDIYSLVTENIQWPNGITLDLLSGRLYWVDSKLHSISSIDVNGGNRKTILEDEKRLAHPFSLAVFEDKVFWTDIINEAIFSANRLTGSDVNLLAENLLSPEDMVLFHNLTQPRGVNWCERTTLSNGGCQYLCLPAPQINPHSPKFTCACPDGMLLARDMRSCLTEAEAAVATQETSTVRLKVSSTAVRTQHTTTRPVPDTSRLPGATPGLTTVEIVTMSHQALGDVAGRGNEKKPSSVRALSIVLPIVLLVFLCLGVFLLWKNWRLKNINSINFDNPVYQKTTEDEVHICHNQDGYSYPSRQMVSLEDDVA

[4] = biological target: T1, human CD16 receptor (FcgammaRIIIa); experiment: cell-based or functional assay; remark: listed apart in the source

T1 sequence (P08637 17-254): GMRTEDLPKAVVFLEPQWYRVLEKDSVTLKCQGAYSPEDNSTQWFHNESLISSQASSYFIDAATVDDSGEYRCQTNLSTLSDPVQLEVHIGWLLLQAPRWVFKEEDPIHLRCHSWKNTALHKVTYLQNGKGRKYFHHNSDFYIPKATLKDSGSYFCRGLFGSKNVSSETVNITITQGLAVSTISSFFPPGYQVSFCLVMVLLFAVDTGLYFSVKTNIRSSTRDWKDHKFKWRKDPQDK

B1: anti-LDL-R chimeric antibody EMAB604 (antibody, human IgG1, kappa)
heavy: not shown
light: DVLMTQTPLSLPVSLGDQASISCRSSQSILHSSGIAYLEWYLQKPGQSPKLLIYKVSNRFSGVPDRFSGSGSGTDFTLKISRVEAEDLGVYYCFQGSHVPWTFGGGTKLEIKRTVAAPSVFIFPPSDEQLKSGTASVVCLLNNFYPREAKVQWKVDNALQSGNSQESVTEQDSKDSTYSLSSTLTLSKADYEKHKVYACEVTHQGLSSPVTKSFNRGEC
notes: The cloned V fragments contain the natural signal peptide of C7; also called anti-LDL-R (EMAB604); chimeric antibody C7
ADCC EC50, GUY 17.2 target cells, NK effector cells [1]: 0.45 µg/mL
fold binding against Rituxan® [2]: ~3 fold
binding result [3]: binds
ADCC EC50, HT-144 target cells, NK effector cells [4]: 0.45 µg/mL
